# In IntAct's records for PubMed 23454188:
# B1: GTPase IMAP family member 7 (Homo sapiens), Q8NHV1 (parent)
# chain: MAESEDRSLRIVLVGKTGSGKSATANTILGEEIFDSRIAAQAVTKNCQKASREWQGRDLLVVDTPGLFDTKESLDTTCKEISRCIISSCPGPHAIVLVLLLGRYTEEEQKTVALIKAVFGKSAMKHMVILFTRKEELEGQSFHDFIADADVGLKSIVKECGNRCCAFSNSKKTSKAEKESQVQELVELIEKMVQCNEGAYFSDDIYKDTEERLKQREEVLRKIYTDQLNEEIKLVEEDKHKSEEEKEKEIKLLKLKYDEKIKNIREEAERNIFKDVFNRIWKMLSEIWHRFLSKCKFYSS
# Variants of: B1
# Details: with gima2_human GIMAP2, Q9UG22
# Sequence of gima2_human GIMAP2, Q9UG22 (Q9UG22 whole entry): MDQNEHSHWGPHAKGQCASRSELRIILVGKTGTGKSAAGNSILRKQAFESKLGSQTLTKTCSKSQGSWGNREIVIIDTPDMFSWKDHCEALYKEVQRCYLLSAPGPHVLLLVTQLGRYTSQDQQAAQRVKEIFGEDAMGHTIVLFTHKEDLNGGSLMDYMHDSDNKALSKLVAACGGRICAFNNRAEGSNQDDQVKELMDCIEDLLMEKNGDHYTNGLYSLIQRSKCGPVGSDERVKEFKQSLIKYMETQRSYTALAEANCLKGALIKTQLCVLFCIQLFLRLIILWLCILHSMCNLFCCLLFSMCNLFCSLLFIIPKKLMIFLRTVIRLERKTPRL
row,Variant,effect of a mutation on the interaction
1,MAESEDRSLRIVLVGKTGSGKSATANTILGEEIFDSRIAAQAVTKNCQKASREWQGRDLLVVDTPGLFDTKESLDTTCKEISRCIISSCPGPHAIVLVLLLGDYTEEEQKTVALIKAVFGKSAMKHMVILFTRKEELEGQSFHDFIADADVGLKSIVKECGNRCCAFSNSKKTSKAEKESQVQELVELIEKMVQCNEGAYFSDDIYKDTEERLKQREEVLRKIYTDQLNEEIKLVEEDKHKSEEEKEKEIKLLKLKYDEKIKNIREEAERNIFKDVFNRIWKMLSEIWHRFLSKCKFYSS [R103D],disrupting interaction strength
2,MAESEDRSLRIVLVGKTGSGKSATANTILGEEIFDSRIAAQAVTKNCQKASREWQGRDLLVVDTPGLFDTKESLDTTCKEISRCIISSCPGPHAIVLVLLLGRYTEEEQKTVALIKAVFGKSAMKHMVILFTRKEWLEGQSFHDFIADADVGLKSIVKECGNRCCAFSNSKKTSKAEKESQVQELVELIEKMVQCNEGAYFSDDIYKDTEERLKQREEVLRKIYTDQLNEEIKLVEEDKHKSEEEKEKEIKLLKLKYDEKIKNIREEAERNIFKDVFNRIWKMLSEIWHRFLSKCKFYSS [E136W],decreasing interaction strength
